Values joined by “and” are separate entries in the source; they are usually repeats but may differ in a detail not shown here. Equal values may be shown once.
Assays:
[1] = target: integrin β1A cytoplasmic domain fused to the Gal4 DNA BD (human); test: two-hybrid
[2] = target: the molecule itself; test: cross-linking

Chain of integrin β1A cytoplasmic domain fused to the Gal4 DNA BD (human) (P05556 21-798): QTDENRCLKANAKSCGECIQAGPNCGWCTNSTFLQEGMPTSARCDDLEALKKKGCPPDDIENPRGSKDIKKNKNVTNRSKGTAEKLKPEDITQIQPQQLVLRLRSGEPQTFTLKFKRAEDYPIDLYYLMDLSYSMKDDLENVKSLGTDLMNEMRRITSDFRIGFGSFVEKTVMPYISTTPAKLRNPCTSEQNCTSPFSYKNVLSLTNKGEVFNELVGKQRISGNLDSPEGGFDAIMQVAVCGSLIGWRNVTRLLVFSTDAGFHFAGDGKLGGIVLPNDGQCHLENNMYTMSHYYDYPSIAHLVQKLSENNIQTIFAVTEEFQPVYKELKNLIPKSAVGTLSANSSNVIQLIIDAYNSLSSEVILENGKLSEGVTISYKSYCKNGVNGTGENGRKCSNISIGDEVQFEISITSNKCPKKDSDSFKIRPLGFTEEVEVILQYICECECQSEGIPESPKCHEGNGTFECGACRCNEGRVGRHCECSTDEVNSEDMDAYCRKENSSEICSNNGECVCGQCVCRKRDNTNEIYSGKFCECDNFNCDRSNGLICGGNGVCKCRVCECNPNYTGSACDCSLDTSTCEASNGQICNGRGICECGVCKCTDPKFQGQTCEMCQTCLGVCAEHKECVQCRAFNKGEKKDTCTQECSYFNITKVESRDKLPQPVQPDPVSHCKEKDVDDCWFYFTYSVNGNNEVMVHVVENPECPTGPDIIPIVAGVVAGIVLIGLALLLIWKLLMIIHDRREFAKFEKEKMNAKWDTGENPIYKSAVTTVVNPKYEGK
Chain of filamin-B_(var-1)(19–24), Gal4 AD fusion (domain or fragment) (O75369 whole entry, the tested form may be a part): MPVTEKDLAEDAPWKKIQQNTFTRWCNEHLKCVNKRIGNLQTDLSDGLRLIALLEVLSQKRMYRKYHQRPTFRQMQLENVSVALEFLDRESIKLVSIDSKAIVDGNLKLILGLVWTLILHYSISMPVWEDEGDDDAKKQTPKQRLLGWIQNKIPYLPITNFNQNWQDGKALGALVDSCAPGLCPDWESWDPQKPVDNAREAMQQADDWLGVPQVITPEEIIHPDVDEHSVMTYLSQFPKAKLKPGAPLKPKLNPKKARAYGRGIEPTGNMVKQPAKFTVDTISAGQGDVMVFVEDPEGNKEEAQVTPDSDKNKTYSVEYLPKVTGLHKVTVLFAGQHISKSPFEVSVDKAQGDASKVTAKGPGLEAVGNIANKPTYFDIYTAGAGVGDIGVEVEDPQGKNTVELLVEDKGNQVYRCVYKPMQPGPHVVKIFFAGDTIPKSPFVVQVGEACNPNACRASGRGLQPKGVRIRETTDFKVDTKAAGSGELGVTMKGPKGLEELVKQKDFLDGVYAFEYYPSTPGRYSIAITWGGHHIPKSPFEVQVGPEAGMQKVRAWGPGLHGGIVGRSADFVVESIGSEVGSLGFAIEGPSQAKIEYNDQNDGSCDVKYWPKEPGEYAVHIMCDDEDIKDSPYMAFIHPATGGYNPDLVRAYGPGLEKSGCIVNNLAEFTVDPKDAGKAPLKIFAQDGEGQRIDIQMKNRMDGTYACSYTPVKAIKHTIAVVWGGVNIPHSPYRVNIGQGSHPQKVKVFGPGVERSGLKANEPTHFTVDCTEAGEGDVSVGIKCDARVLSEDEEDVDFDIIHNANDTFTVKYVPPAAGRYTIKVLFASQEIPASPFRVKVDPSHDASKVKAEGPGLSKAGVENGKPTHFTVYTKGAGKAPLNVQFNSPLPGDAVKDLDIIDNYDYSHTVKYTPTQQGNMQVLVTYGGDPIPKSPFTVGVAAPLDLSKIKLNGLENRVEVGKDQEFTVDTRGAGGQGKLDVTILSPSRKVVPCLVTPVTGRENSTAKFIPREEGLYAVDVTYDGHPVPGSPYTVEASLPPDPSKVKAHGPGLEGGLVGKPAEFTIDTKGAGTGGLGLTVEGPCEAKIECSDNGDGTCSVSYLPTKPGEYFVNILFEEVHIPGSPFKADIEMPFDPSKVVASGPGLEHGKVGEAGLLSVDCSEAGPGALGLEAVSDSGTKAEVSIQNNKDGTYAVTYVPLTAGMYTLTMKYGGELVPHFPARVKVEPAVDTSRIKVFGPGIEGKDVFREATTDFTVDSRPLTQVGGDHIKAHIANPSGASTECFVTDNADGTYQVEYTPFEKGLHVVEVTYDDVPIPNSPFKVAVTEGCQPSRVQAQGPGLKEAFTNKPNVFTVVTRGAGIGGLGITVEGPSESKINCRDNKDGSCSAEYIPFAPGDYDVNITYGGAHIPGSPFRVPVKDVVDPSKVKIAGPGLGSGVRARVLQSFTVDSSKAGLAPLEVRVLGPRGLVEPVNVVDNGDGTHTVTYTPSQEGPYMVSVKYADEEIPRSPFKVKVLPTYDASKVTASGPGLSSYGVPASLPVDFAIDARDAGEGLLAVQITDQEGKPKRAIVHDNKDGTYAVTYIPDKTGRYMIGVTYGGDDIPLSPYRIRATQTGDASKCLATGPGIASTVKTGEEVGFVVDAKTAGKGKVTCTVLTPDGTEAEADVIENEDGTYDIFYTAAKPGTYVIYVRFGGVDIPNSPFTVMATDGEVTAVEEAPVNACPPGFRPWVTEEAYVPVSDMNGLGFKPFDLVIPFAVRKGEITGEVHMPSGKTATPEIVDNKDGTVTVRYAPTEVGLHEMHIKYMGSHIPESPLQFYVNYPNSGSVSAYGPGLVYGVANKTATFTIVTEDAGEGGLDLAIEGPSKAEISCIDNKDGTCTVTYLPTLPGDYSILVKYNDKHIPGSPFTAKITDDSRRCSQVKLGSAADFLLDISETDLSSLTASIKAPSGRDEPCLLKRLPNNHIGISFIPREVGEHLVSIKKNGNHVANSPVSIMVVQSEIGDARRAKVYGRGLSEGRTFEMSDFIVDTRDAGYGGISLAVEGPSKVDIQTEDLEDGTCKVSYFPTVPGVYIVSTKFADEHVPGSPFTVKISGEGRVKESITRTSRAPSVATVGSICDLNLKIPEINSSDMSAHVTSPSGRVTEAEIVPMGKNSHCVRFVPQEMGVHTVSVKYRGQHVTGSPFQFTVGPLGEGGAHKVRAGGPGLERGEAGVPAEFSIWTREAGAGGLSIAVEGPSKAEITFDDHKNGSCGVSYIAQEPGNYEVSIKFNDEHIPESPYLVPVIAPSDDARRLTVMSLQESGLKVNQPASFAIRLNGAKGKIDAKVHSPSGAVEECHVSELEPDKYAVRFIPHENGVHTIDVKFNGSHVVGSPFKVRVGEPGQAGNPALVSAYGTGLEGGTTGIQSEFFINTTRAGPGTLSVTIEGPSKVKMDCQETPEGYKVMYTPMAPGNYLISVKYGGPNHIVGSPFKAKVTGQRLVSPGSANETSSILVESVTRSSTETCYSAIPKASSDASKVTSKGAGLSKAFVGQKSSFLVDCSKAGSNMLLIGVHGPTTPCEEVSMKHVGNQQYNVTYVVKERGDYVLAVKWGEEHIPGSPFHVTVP

Molecule	fold binding (β-galactosidase activity) against wild-type filamin-B(19–24) [1]	stoichiometry N [2]
filamin-B_(var-1)(19–24), Gal4 AD fusion (domain or fragment)	2 fold and 3 fold	–
NH2-terminal HA-tagged FLN-B(19–24) (domain or fragment, human, UniProt O75369-1 2009-2602, looked up) GRGLSEGRTFEMSDFIVDTRDAGYGGISLAVEGPSKVDIQTEDLEDGTCKVSYFPTVPGVYIVSTKFADEHVPGSPFTVKISGEGRVKESITRTSRAPSVATVGSICDLNLKIPEINSSDMSAHVTSPSGRVTEAEIVPMGKNSHCVRFVPQEMGVHTVSVKYRGQHVTGSPFQFTVGPLGEGGAHKVRAGGPGLERGEAGVPAEFSIWTREAGAGGLSIAVEGPSKAEITFDDHKNGSCGVSYIAQEPGNYEVSIKFNDEHIPESPYLVPVIAPSDDARRLTVMSLQESGLKVNQPASFAIRLNGAKGKIDAKVHSPSGAVEECHVSELEPDKYAVRFIPHENGVHTIDVKFNGSHVVGSPFKVRVGEPGQAGNPALVSAYGTGLEGGTTGIQSEFFINTTRAGPGTLSVTIEGPSKVKMDCQETPEGYKVMYTPMAPGNYLISVKYGGPNHIVGSPFKAKVTGQRLVSPGSANETSSILVESVTRSSTETCYSAIPKASSDASKVTSKGAGLSKAFVGQKSSFLVDCSKAGSNMLLIGVHGPTTPCEEVSMKHVGNQQYNVTYVVKERGDYVLAVKWGEEHIPGSPFHVTVP	–	2
COOH-terminal GFP-tagged FLN-B(19–24) (domain or fragment, human, UniProt O75369-1 2009-2602, looked up) GRGLSEGRTFEMSDFIVDTRDAGYGGISLAVEGPSKVDIQTEDLEDGTCKVSYFPTVPGVYIVSTKFADEHVPGSPFTVKISGEGRVKESITRTSRAPSVATVGSICDLNLKIPEINSSDMSAHVTSPSGRVTEAEIVPMGKNSHCVRFVPQEMGVHTVSVKYRGQHVTGSPFQFTVGPLGEGGAHKVRAGGPGLERGEAGVPAEFSIWTREAGAGGLSIAVEGPSKAEITFDDHKNGSCGVSYIAQEPGNYEVSIKFNDEHIPESPYLVPVIAPSDDARRLTVMSLQESGLKVNQPASFAIRLNGAKGKIDAKVHSPSGAVEECHVSELEPDKYAVRFIPHENGVHTIDVKFNGSHVVGSPFKVRVGEPGQAGNPALVSAYGTGLEGGTTGIQSEFFINTTRAGPGTLSVTIEGPSKVKMDCQETPEGYKVMYTPMAPGNYLISVKYGGPNHIVGSPFKAKVTGQRLVSPGSANETSSILVESVTRSSTETCYSAIPKASSDASKVTSKGAGLSKAFVGQKSSFLVDCSKAGSNMLLIGVHGPTTPCEEVSMKHVGNQQYNVTYVVKERGDYVLAVKWGEEHIPGSPFHVTVP	–	2

From paper PMC2199218 (The Journal of Cell Biology, 2002)
